Assay results: the supplement of paper PMC7877785
± gives the uncertainty stated by the source.

Experiment: self-splicing fitness, log relative to wild type (ln ratio); higher = more splicing; Tetrahymena group I intron in knt gene, E. coli kanamycin selection, DiMSum; sequences stand for … in CUCUCU…GGAGGGAAAAGUUAUCAGGCAUGCACCUGGUAGCUAGUCUUUAAACCAAUAGAUUGCAUCGGUUUAAAAGGCAAGACCGUCAAAUUGCGGGAAAGGGGUCAACAGCCGUUCAGUACCAAGUCUCAGGGGAAACUUUGAGAUGGCCUUGCAAAGGGUAUGGUAAUAAGCUGACGGACAUGGUCCUAACCACGCAGCCAAGUCCUAAGUCAACAGAUCUUCUGUUGAUAUGGAUGCAGUUCACAGACUAAAUGUCGGUCGGGGAAGAUGUAUUCUUCUCAUAAGAUAUAGUCGGACCUCUCCUUAAUGGGAGCUAGCGGAUGAAGUGAUGCAACACUGGAGCCGCUGGGAACUAAUUUGUAUGCGAAAGUAUAUUGAUUAGUUUUGGAGUACUCGUGGUCG
Method in brief: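 Library with all eight P1ex-region intron nucleotides randomised, intron inside the knt kanamycin-resistance gene on pET-22b(+), in E. coli BL21(DE3). Cells grew overnight at 37°C or 30°C on LB agar with or without 25 μg/mL kanamycin (plus 100 μg/mL carbenicillin, 50 μM IPTG, 0.2% rhamnose), in six replicate transformations. Pooled colonies were amplicon-sequenced on Illumina HiSeq 2500. DiMSum fitness is the error-weighted combination of wild-type-normalised replicate fold changes, kanamycin versus none.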

Row | Sequence | self-splicing fitness (ln) (30 °C) | self-splicing fitness (ln) (37 °C)
1 | CGGGAGCAAUAUUACGCAUA | -2.61 ± 0.37 | -1.96 ± 0.35
2 | AGUAAGCAAUAUUACGCUUU | -3.63 ± 0.26 | -2.36 ± 0.22
3 | ACGGAGCAAUAUUACGGGUC |  | -2.58 ± 0.38
4 | ACGAAGCAAUAUUACGCGAC | -3.14 ± 0.2 | -1.78 ± 0.19
5 | AGUGAGCAAUAUUACGAGUG | -3.75 ± 0.47 | -1.02 ± 0.24
6 | UGUAAGCAAUAUUACGUCUC |  | -1.56 ± 0.23
7 | AAGGAGCAAUAUUACGAGCU |  | -0.204 ± 0.24
8 | CCGCAGCAAUAUUACGUAGG | -2.6 ± 0.068 | -2.95 ± 0.13
9 | AACUAGCAAUAUUACGUGGC | -3.72 ± 0.25 | -1.92 ± 0.17
10 | ACUAAGCAAUAUUACGCAGU | -4.72 ± 0.28 | -3.25 ± 0.46
11 | GAGCAGCAAUAUUACGAUCG | -2.76 ± 0.17 | -2.48 ± 0.26
12 | AAAUAGCAAUAUUACGGUUU | -1.3 ± 0.059 | -0.657 ± 0.076
13 | GCGCAGCAAUAUUACGGCAA | -0.734 ± 0.14 | -0.814 ± 0.14
14 | GUCAAGCAAUAUUACGUGCA | -1.58 ± 0.11 | -0.243 ± 0.1
15 | GAGAAGCAAUAUUACGGUAA | -1.64 ± 0.2 | -1.57 ± 0.18
16 | GAAGAGCAAUAUUACGGCCA | -1.59 ± 0.3 | -1.27 ± 0.5
17 | CGGAAGCAAUAUUACGUUUC | -4.04 ± 0.29 | -2.69 ± 0.23
18 | AACAAGCAAUAUUACGCUCG | -0.882 ± 0.11 | -0.282 ± 0.11
19 | AUCCAGCAAUAUUACGAAAG | -3.77 ± 0.18 | -2.76 ± 0.21
20 | AUCUAGCAAUAUUACGUAGA | -2.39 ± 0.12 | -0.832 ± 0.11
21 | GCCCAGCAAUAUUACGUUAA | -1.6 ± 0.097 | -1.01 ± 0.089
22 | AGGGAGCAAUAUUACGCUCG | -2.31 ± 0.27 | -2.12 ± 0.3
23 | ACAGAGCAAUAUUACGGUGU | -3.8 ± 0.15 | -3.02 ± 0.22
24 | UAGCAGCAAUAUUACGCGAC | -3.54 ± 0.21 | -1.67 ± 0.21
25 | AUACAGCAAUAUUACGCGCA | -0.623 ± 0.078 | -0.0747 ± 0.11

Row | Sequence | self-splicing fitness (ln) (30 °C) | self-splicing fitness (ln) (37 °C)
26 | AGUUAGCAAUAUUACGAGAC | -3.11 ± 0.26 | -2.02 ± 0.27
27 | CUCAAGCAAUAUUACGUGAG | -3.05 ± 0.11 | -3.3 ± 0.16
28 | UAACAGCAAUAUUACGCACU | -1.26 ± 0.06 | 0.231 ± 0.087
29 | CCGGAGCAAUAUUACGAGAC | -2.99 ± 0.38 | 
30 | UCUAAGCAAUAUUACGGCGU | -2.01 ± 0.11 | -0.795 ± 0.11
31 | UACUAGCAAUAUUACGGUAA | -2.33 ± 0.14 | -1.01 ± 0.12
32 | UGACAGCAAUAUUACGGGUU | -4.59 ± 0.41 | -2.79 ± 0.2
33 | AAACAGCAAUAUUACGCUGC | -4.51 ± 0.19 | -1.81 ± 0.13
34 | UAGCAGCAAUAUUACGAUGG | -1.6 ± 0.063 | -0.933 ± 0.073
35 | GAAAAGCAAUAUUACGAAUA | -1.57 ± 0.13 | -1.19 ± 0.1
36 | AUCAAGCAAUAUUACGUAAC | -2.98 ± 0.16 | -2.18 ± 0.19
37 | AUCAAGCAAUAUUACGUGAG | -0.619 ± 0.046 | 0.349 ± 0.073
38 | AGCUAGCAAUAUUACGAGUC | -3.89 ± 0.22 | -2.08 ± 0.19
39 | CACCAGCAAUAUUACGUGGC | -3.65 ± 0.17 | -2.98 ± 0.21
40 | CAUCAGCAAUAUUACGGGAC | -3.95 ± 0.46 | -2.51 ± 0.22
41 | CUUUAGCAAUAUUACGAUGG | -1.01 ± 0.1 | -0.752 ± 0.13
42 | GGUGAGCAAUAUUACGGCCG | -1.15 ± 0.38 | -2.11 ± 0.24
43 | UCAGAGCAAUAUUACGCAAU | -2.77 ± 0.24 | -3.06 ± 0.35
44 | ACCGAGCAAUAUUACGUUAU | -3.78 ± 0.14 | -2.6 ± 0.15
45 | UUCUAGCAAUAUUACGGCCA | -2.24 ± 0.4 | -1.84 ± 0.42
46 | CACGAGCAAUAUUACGAAUG | -2.66 ± 0.11 | -2.17 ± 0.16
47 | UGCAAGCAAUAUUACGUGUC | -1.55 ± 0.09 | -3.56 ± 0.23
48 | AUAUAGCAAUAUUACGUCAA | -2.93 ± 0.25 | -2.06 ± 0.2
49 | UACCAGCAAUAUUACGUUCU | -2.28 ± 0.096 | -1.86 ± 0.11
50 | UAAUAGCAAUAUUACGAUAU | -3.99 ± 0.47 | -1.52 ± 0.25

Row | Sequence | self-splicing fitness (ln) (30 °C) | self-splicing fitness (ln) (37 °C)
51 | UAUCAGCAAUAUUACGUCGA | -1.16 ± 0.1 | 0.104 ± 0.12
52 | CGGCAGCAAUAUUACGUGGG | -3.46 ± 0.14 | -2.24 ± 0.11
53 | UGUUAGCAAUAUUACGGUCC | -2.6 ± 0.38 | 
54 | CGCUAGCAAUAUUACGGGAG | -2.79 ± 0.1 | -1.43 ± 0.082
55 | GACCAGCAAUAUUACGCAUU | -0.15 ± 0.053 | 0.0155 ± 0.067
56 | UGUCAGCAAUAUUACGCAAA | -0.635 ± 0.11 | -0.0477 ± 0.12
57 | AGGUAGCAAUAUUACGAAUU | -1.85 ± 0.017 | -0.996 ± 0.035
58 | AUACAGCAAUAUUACGCGCC | -1.06 ± 0.12 | -0.66 ± 0.16
59 | CAGCAGCAAUAUUACGGCUA | -0.235 ± 0.088 | 0.311 ± 0.13
60 | UCGUAGCAAUAUUACGGUUU | -3.44 ± 0.14 | -1.37 ± 0.11
61 | CUCGAGCAAUAUUACGUCCU | -2.54 ± 0.24 | -2.55 ± 0.48
62 | UCUGAGCAAUAUUACGCUGA | -1.89 ± 0.17 | -0.151 ± 0.15
63 | GUUCAGCAAUAUUACGUUAG | -1.3 ± 0.077 | -0.731 ± 0.11
64 | UAAGAGCAAUAUUACGGCAU | -2.3 ± 0.39 | -1 ± 0.3
65 | AUUGAGCAAUAUUACGAAAU | -3.34 ± 0.12 | -2.88 ± 0.16
66 | AAACAGCAAUAUUACGCCCU | -0.534 ± 0.11 | 0.201 ± 0.16
67 | GCACAGCAAUAUUACGAAUU | -1.19 ± 0.077 | -0.471 ± 0.085
68 | GCGAAGCAAUAUUACGUGAC | -1.51 ± 0.28 | -2.05 ± 0.29
69 | UAACAGCAAUAUUACGCGAG | -0.783 ± 0.052 | -0.508 ± 0.066
70 | UAGUAGCAAUAUUACGCAGA | -2.43 ± 0.23 | -2.99 ± 0.18
71 | AGCAAGCAAUAUUACGAUAU | -2.16 ± 0.13 | -1.51 ± 0.11
72 | CGAAAGCAAUAUUACGGCCC | -1.42 ± 0.19 | -0.196 ± 0.35
73 | GUAAAGCAAUAUUACGUAAG | -1.95 ± 0.1 | -1.2 ± 0.13
74 | UCGGAGCAAUAUUACGGACG | -1.65 ± 0.21 | 0.113 ± 0.17
75 | GCUCAGCAAUAUUACGAUCA | -0.7 ± 0.19 | -0.164 ± 0.17

Row | Sequence | self-splicing fitness (ln) (30 °C) | self-splicing fitness (ln) (37 °C)
76 | AUACAGCAAUAUUACGUCCA | -1.17 ± 0.08 | -0.0617 ± 0.086
77 | AAUCAGCAAUAUUACGCGCC | -0.953 ± 0.12 | -0.532 ± 0.13
78 | CCGCAGCAAUAUUACGGGGA | -3.59 ± 0.15 | -2.35 ± 0.15
79 | UUUAAGCAAUAUUACGGCGA | 0.000504 ± 0.075 | 0.503 ± 0.1
80 | CAUUAGCAAUAUUACGCUUA | -2.22 ± 0.13 | -2.16 ± 0.15
81 | CAAGAGCAAUAUUACGCGUU | -3.61 ± 0.22 | -3.05 ± 0.25
82 | AAACAGCAAUAUUACGGUAU | -2.53 ± 0.074 | -1.58 ± 0.088
83 | CCUUAGCAAUAUUACGCGCA | -2.45 ± 0.4 | -1.89 ± 0.34
84 | GCGAAGCAAUAUUACGGGAC | -1.66 ± 0.16 | -2.2 ± 0.22
85 | UACCAGCAAUAUUACGACCC | -2.84 ± 0.5 | -1.02 ± 0.44
86 | UCUCAGCAAUAUUACGGUGA | -1.8 ± 0.13 | -1.14 ± 0.12
87 | CGGGAGCAAUAUUACGUAGA | -3.97 ± 0.47 | -1.96 ± 0.26
88 | AGACAGCAAUAUUACGUUGC | -3.73 ± 0.24 | -3.26 ± 0.37
89 | UUGUAGCAAUAUUACGAAGA | -3.14 ± 0.33 | 
90 | GGAGAGCAAUAUUACGACGA | -2.34 ± 0.21 | -2.08 ± 0.3
91 | UUUGAGCAAUAUUACGCCGG | -2.04 ± 0.35 | 0.228 ± 0.38
92 | UUCAAGCAAUAUUACGCAGA | -3.11 ± 0.35 | -1.91 ± 0.2
93 | UCACAGCAAUAUUACGCAUU | -2.93 ± 0.22 | 
94 | GCCCAGCAAUAUUACGCUUU | 0.177 ± 0.056 | 0.242 ± 0.074
95 | AUCUAGCAAUAUUACGUCAA | -2.6 ± 0.29 | -1.68 ± 0.21
96 | CUCCAGCAAUAUUACGAAAC | -3.94 ± 0.32 | -2.44 ± 0.26
97 | AAUGAGCAAUAUUACGUCGU | -2.77 ± 0.082 | -1.18 ± 0.086
